According to patent publication US7045537B1, “Protein structures and protein fibres” (The University of Sussex, priority 1999, dated 2006):
Values joined by “and” are separate entries in the source; they are usually repeats but may differ in a detail not shown here. Identical values can stand only once.

T1: SAF-p2B (CH3CO at the N terminus and NH2 at the C terminus)
T1 peptide: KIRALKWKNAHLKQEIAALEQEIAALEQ

T2: SAF-p2C
T2 construct: Designed peptide, uncapped ends
T2 peptide: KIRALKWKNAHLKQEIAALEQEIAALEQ

T3: SAF-p2A
T3 sequence (peptide): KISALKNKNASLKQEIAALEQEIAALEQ

T4: SAF-p2D
T4 construct: also called Self-Assembling Fibre peptide 2
T4 peptide: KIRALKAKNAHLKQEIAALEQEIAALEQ

B1: SAF-p1A (peptide)
peptide: KIAALKQKIAALKQEIDALEYENDALEQ
notes: Prototype designed peptide, uncapped ends
B2: SAF-p1C (peptide)
peptide: KIAALKQKIASLKQEIDALEYENDALEQ
notes: also called Self-Assembling Fibre peptide 1

Columns and labels:
SAF-p2B [1] = target: T1, SAF-p2B; experiment: circular dichroism of the peptide mixture, 100 µM
Description: (§1) Peptide samples were incubated at 5° C. in 10 mM MOPS (3-(N-Morpholino)propanesulfonic acid), pH 7. Sample concentrations were determined from their UV absorbance at 280 nm (SAF-p1) and 214 nm (SAF-p2). After baseline correction, ellipticities in mdeg were converted to molar ellipticities (deg cm^2 dmol-res^-1) by normalizing for the concentration of peptide bonds. Data were recorded in a cell of 1 mm path length by integrating the signal for 5s (and 1s for the fresh 100 µM peptide mixture) every nm in the range 205–260 nm. CD measurements were made using a JASCO J-715 spectropolarimeter fitted with a Peltier temperature controller.

SAF-p2C [2] = target: T2, SAF-p2C; experiment: circular dichroism of the peptide mixture, 100 µM
Description: as §1

SAF-p2A [3] = target: T3, SAF-p2A; experiment: circular dichroism of the peptide mixture, 10 µM
SAF-p2A [4] = target: T3, SAF-p2A; experiment: circular dichroism of the peptide mixture, 100 µM
SAF-p2A [5] = target: T3, SAF-p2A; experiment: thermal melt by circular dichroism of the peptide mixture, 100 µM
SAF-p2B [6] = target: T1, SAF-p2B; experiment: thermal melt by circular dichroism of the peptide mixture, 100 µM (expect 38° C. if no interaction)
SAF-p2C [7] = target: T2, SAF-p2C; experiment: circular dichroism of the peptide mixture, 10 µM
Description: as §1

SAF-p2D [8] = target: T4, SAF-p2D; experiment: circular dichroism of the peptide mixture, 100 µM
Description: as §1

SAF-p2D [9] = target: T4, SAF-p2D; experiment: circular dichroism of the peptide mixture, 10 µM
Description: as §1

SAF-p2B [10] = target: T1, SAF-p2B; experiment: thermal melt by circular dichroism of the peptide mixture, 10 µM (expect 19° C. if no interaction)
SAF-p2B [11] = target: T1, SAF-p2B; experiment: thermal melt by circular dichroism of the peptide mixture, 100 µM (expect 36° C. if no interaction)
SAF-p2B [12] = target: T1, SAF-p2B; experiment: circular dichroism of the peptide mixture, 10 µM
Description: as §1

| Binder | % α-helix of the mixture (CD) (SAF-p2B [1]) [%] | % α-helix of the mixture (CD) (SAF-p2C [2]) [%] | % α-helix of the mixture (CD) (SAF-p2A [3]) [%] | % α-helix of the mixture (CD) (SAF-p2A [4]) [%] | Tm of the mixture (CD) (SAF-p2A [5]) [° C.] | Tm of the mixture (CD) (SAF-p2B [6]) | % α-helix of the mixture (CD) (SAF-p2C [7]) [%] | % α-helix of the mixture (CD) (SAF-p2D [8]) [%] | % α-helix of the mixture (CD) (SAF-p2D [9]) [%] | Tm of the mixture (CD) (SAF-p2B [10]) [° C.] | Tm of the mixture (CD) (SAF-p2B [11]) [° C.] | % α-helix of the mixture (CD) (SAF-p2B [12]) [%] |
| --- | --- | --- | --- | --- | --- | --- | --- | --- | --- | --- | --- | --- |
| B1 | ~65 | ~80 | 20 | 40 | 30 | ~36 ° C. and ~46 ° C. | ~20 | – | – | – | – | – |
| B2 | – | ~65 | – | – | – | – | ~25 | ~85 | ~25 | – | – | – |
| Ac-KIAALKQKIAALKQEIDALEYENDALEQ-NH2 (Chemically capped form of SAF-p1A) [SAF-p1B] | ~80 | – | – | – | – | – | – | – | – | ~25 | ~35 | ~70 |
